T1: FRMPD1, Q5SYB0
T1 sequence (Q5SYB0 52-145, limits assumed, looked up): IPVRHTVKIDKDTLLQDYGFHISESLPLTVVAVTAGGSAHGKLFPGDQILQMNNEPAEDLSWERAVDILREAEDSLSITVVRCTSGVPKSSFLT

T2: SNTG2, Q9NY99
T2 sequence (Q9NY99 68-166, limits assumed, looked up): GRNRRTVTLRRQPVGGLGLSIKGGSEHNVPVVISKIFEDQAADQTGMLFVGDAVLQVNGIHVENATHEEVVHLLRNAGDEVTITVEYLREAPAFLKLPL

T3: LIN7C, Q9NUP9
T3 sequence (Q9NUP9 88-185, limits assumed, looked up): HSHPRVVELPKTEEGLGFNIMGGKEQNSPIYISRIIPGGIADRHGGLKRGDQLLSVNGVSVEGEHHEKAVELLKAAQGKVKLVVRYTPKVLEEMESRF

T4: TX1BP3, O14907
T4 sequence (O14907 10-122, limits assumed, looked up): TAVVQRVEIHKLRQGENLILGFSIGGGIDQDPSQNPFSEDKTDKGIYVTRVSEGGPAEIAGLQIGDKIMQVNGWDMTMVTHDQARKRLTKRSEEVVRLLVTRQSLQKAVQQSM

T5: PTPN13_1, Q12923
T5 sequence (Q12923 1088-1188, limits assumed, looked up): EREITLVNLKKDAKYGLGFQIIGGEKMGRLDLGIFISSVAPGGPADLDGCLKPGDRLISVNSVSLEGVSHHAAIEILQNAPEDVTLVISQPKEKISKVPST

T6: TJP3_3, O95049
T6 sequence (O95049 375-456, limits assumed, looked up): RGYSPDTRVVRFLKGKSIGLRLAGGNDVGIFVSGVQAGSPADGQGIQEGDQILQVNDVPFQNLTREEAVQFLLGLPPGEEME

T7: SNTA1, Q13424
T7 sequence (Q13424 82-180, limits assumed, looked up): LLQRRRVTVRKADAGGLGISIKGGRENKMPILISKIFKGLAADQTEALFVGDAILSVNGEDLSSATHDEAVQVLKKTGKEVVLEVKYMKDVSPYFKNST

T8: RHPN1, Q8TCX5
T8 sequence (Q8TCX5 508-602, limits assumed, looked up): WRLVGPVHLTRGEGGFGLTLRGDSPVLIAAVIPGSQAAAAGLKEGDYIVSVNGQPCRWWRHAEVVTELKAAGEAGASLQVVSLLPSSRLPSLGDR

T9: PDZD7_3, Q9H5P4
T9 sequence (Q9H5P4 857-944, limits assumed, looked up): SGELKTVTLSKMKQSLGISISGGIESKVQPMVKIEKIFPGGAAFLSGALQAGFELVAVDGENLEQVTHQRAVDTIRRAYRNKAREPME

T10: HTRA3, P83110
T10 sequence (P83110 354-453, limits assumed, looked up): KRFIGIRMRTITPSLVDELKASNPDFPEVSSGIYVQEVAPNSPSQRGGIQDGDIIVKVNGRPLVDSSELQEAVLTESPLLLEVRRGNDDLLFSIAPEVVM

T11: APBA3_1, O96018
T11 sequence (O96018 389-490, limits assumed, looked up): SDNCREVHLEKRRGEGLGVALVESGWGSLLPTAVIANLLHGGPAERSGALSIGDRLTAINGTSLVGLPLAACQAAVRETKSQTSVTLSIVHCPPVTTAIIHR

T12: DVL3, Q92997
T12 sequence (Q92997 244-331, limits assumed, looked up): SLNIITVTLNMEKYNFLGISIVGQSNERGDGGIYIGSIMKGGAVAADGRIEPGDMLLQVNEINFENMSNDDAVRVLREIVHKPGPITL


target: FRMPD2_1, Q68DX3; assay: holdup assay; design: key: below the threshold = too weak to quantify, mostly under pKd 3.1 to 4; settings: plain residues with an end cap or a label only (N-terminal biotin on a linker: ado-ado)
Sequence (Q68DX3 770-861): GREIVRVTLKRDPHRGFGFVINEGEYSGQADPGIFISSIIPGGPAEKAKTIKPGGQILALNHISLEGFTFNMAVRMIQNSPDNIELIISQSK

Row | pKd | Binder
1 | below the threshold | RRLQGTSSMV [GOLT1A, Q6ZVE7]

target: GRIP2_3, Q9C0E4; assay: holdup assay; design: key: below the threshold = too weak to quantify, mostly under pKd 3.1 to 4; settings: plain residues with an end cap or a label only (N-terminal biotin on a linker: ado-ado)
Sequence (Q9C0E4 238-339): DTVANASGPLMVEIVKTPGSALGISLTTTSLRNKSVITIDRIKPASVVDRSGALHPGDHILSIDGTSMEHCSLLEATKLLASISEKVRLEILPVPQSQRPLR

Row | pKd | Binder
2 | below the threshold | RRLQGTSSMV [GOLT1A, Q6ZVE7]

target: T1, FRMPD1, Q5SYB0; assay: holdup assay; design: key: below the threshold = too weak to quantify, mostly under pKd 3.1 to 4; settings: plain residues with an end cap or a label only (N-terminal biotin on a linker: ado-ado)

Row | pKd | Binder
3 | below the threshold | RRLQGTSSMV [GOLT1A, Q6ZVE7]

target: T2, SNTG2, Q9NY99; assay: holdup assay; design: key: below the threshold = too weak to quantify, mostly under pKd 3.1 to 4; settings: plain residues with an end cap or a label only (N-terminal biotin on a linker: ado-ado)

Row | pKd | Binder
4 | below the threshold | RRLQGTSSMV [GOLT1A, Q6ZVE7]

target: T3, LIN7C, Q9NUP9; assay: holdup assay; design: key: below the threshold = too weak to quantify, mostly under pKd 3.1 to 4; settings: plain residues with an end cap or a label only (N-terminal biotin on a linker: ado-ado)

Row | pKd | Binder
5 | below the threshold | RRLQGTSSMV [GOLT1A, Q6ZVE7]

target: T4, TX1BP3, O14907; assay: holdup assay; design: key: below the threshold = too weak to quantify, mostly under pKd 3.1 to 4; settings: plain residues with an end cap or a label only (N-terminal biotin on a linker: ado-ado)

Row | pKd | Binder
6 | 3.9 | RRLQGTSSMV [GOLT1A, Q6ZVE7]

target: T5, PTPN13_1, Q12923; assay: holdup assay; design: key: below the threshold = too weak to quantify, mostly under pKd 3.1 to 4; settings: plain residues with an end cap or a label only (N-terminal biotin on a linker: ado-ado)

Row | pKd | Binder
7 | below the threshold | RRLQGTSSMV [GOLT1A, Q6ZVE7]

target: DLG2_3, Q15700; assay: holdup assay; design: key: below the threshold = too weak to quantify, mostly under pKd 3.1 to 4; settings: plain residues with an end cap or a label only (N-terminal biotin on a linker: ado-ado)

Row | pKd | Binder
8 | 4.06 | RRLQGTSSMV [GOLT1A, Q6ZVE7]

target: T6, TJP3_3, O95049; assay: holdup assay; design: key: below the threshold = too weak to quantify, mostly under pKd 3.1 to 4; settings: plain residues with an end cap or a label only (N-terminal biotin on a linker: ado-ado)

Row | pKd | Binder
9 | below the threshold | RRLQGTSSMV [GOLT1A, Q6ZVE7]

target: FRMPD3, Q5JV73; assay: holdup assay; design: key: below the threshold = too weak to quantify, mostly under pKd 3.1 to 4; settings: plain residues with an end cap or a label only (N-terminal biotin on a linker: ado-ado)
Sequence (Q5JV73 12-100): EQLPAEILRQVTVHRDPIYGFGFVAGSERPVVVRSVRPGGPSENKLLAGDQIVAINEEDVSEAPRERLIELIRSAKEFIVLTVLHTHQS

Row | pKd | Binder
10 | below the threshold | RRLQGTSSMV [GOLT1A, Q6ZVE7]

target: GORASP1, Q9BQQ3; assay: holdup assay; design: key: below the threshold = too weak to quantify, mostly under pKd 3.1 to 4; settings: plain residues with an end cap or a label only (N-terminal biotin on a linker: ado-ado)
Sequence (Q9BQQ3 1-208): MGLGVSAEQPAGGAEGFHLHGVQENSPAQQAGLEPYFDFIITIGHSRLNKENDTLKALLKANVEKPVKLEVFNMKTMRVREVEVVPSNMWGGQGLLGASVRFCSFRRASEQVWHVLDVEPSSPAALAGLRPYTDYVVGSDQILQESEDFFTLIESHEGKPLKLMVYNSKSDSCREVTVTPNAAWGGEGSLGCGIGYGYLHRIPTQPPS

Row | pKd | Binder
11 | 3.67 | RRLQGTSSMV [GOLT1A, Q6ZVE7]

target: T7, SNTA1, Q13424; assay: holdup assay; design: key: below the threshold = too weak to quantify, mostly under pKd 3.1 to 4; settings: plain residues with an end cap or a label only (N-terminal biotin on a linker: ado-ado)

Row | pKd | Binder
12 | below the threshold | RRLQGTSSMV [GOLT1A, Q6ZVE7]

target: T8, RHPN1, Q8TCX5; assay: holdup assay; design: key: below the threshold = too weak to quantify, mostly under pKd 3.1 to 4; settings: plain residues with an end cap or a label only (N-terminal biotin on a linker: ado-ado)

Row | pKd | Binder
13 | 3.58 | RRLQGTSSMV [GOLT1A, Q6ZVE7]

target: ARHGEF12, Q9NZN5-2; assay: holdup assay; design: key: below the threshold = too weak to quantify, mostly under pKd 3.1 to 4; settings: plain residues with an end cap or a label only (N-terminal biotin on a linker: ado-ado)
Sequence (Q9NZN5 other isoform, or with tags, fused parts or gaps): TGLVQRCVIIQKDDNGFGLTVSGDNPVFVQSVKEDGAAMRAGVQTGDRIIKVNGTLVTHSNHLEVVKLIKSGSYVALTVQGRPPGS

Row | pKd | Binder
14 | 3.81 | RRLQGTSSMV [GOLT1A, Q6ZVE7]

target: T9, PDZD7_3, Q9H5P4; assay: holdup assay; design: key: below the threshold = too weak to quantify, mostly under pKd 3.1 to 4; settings: plain residues with an end cap or a label only (N-terminal biotin on a linker: ado-ado)

Row | pKd | Binder
15 | below the threshold | RRLQGTSSMV [GOLT1A, Q6ZVE7]

target: T10, HTRA3, P83110; assay: holdup assay; design: key: below the threshold = too weak to quantify, mostly under pKd 3.1 to 4; settings: plain residues with an end cap or a label only (N-terminal biotin on a linker: ado-ado)

Row | pKd | Binder
16 | 3.64 | RRLQGTSSMV [GOLT1A, Q6ZVE7]

target: PDZRN4_1, Q6ZMN7; assay: holdup assay; design: key: below the threshold = too weak to quantify, mostly under pKd 3.1 to 4; settings: plain residues with an end cap or a label only (N-terminal biotin on a linker: ado-ado)
Sequence (Q6ZMN7 213-318): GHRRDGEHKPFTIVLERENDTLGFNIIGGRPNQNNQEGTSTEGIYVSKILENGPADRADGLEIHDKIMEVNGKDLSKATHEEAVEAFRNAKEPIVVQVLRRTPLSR

Row | pKd | Binder
17 | below the threshold | RRLQGTSSMV [GOLT1A, Q6ZVE7]

target: T11, APBA3_1, O96018; assay: holdup assay; design: key: below the threshold = too weak to quantify, mostly under pKd 3.1 to 4; settings: plain residues with an end cap or a label only (N-terminal biotin on a linker: ado-ado)

Row | pKd | Binder
18 | below the threshold | RRLQGTSSMV [GOLT1A, Q6ZVE7]

target: T12, DVL3, Q92997; assay: holdup assay; design: key: below the threshold = too weak to quantify, mostly under pKd 3.1 to 4; settings: plain residues with an end cap or a label only (N-terminal biotin on a linker: ado-ado)

Row | pKd | Binder
19 | below the threshold | RRLQGTSSMV [GOLT1A, Q6ZVE7]

target: PTPN3, P26045; assay: holdup assay; design: key: below the threshold = too weak to quantify, mostly under pKd 3.1 to 4; settings: plain residues with an end cap or a label only (N-terminal biotin on a linker: ado-ado)
Sequence (P26045 505-587): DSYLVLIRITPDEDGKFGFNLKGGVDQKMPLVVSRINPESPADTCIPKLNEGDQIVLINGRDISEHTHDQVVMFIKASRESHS

Row | pKd | Binder
20 | 3.99 | RRLQGTSSMV [GOLT1A, Q6ZVE7]

target: Inadl_4, Q8NI35; assay: holdup assay; design: key: below the threshold = too weak to quantify, mostly under pKd 3.1 to 4; settings: plain residues with an end cap or a label only (N-terminal biotin on a linker: ado-ado)
Sequence (Q8NI35 547-651): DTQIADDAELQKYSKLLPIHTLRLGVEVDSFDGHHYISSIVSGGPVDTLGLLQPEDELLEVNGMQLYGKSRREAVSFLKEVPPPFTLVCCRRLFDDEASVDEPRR

Row | pKd | Binder
21 | below the threshold | RRLQGTSSMV [GOLT1A, Q6ZVE7]

target: MAGI2_4, Q86UL8; assay: holdup assay; design: key: below the threshold = too weak to quantify, mostly under pKd 3.1 to 4; settings: plain residues with an end cap or a label only (N-terminal biotin on a linker: ado-ado)
Sequence (Q86UL8 772-865): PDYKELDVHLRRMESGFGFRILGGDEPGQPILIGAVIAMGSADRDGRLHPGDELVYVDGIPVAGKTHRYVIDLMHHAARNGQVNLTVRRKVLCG

Row | pKd | Binder
22 | below the threshold | RRLQGTSSMV [GOLT1A, Q6ZVE7]

target: MAST1, Q9Y2H9; assay: holdup assay; design: key: below the threshold = too weak to quantify, mostly under pKd 3.1 to 4; settings: plain residues with an end cap or a label only (N-terminal biotin on a linker: ado-ado)
Sequence (Q9Y2H9 962-1065): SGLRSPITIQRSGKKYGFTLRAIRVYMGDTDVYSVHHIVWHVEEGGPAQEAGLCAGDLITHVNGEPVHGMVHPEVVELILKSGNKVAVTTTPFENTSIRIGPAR

Row | pKd | Binder
23 | 4.35 | RRLQGTSSMV [GOLT1A, Q6ZVE7]

target: Inadl_5, Q8NI35; assay: holdup assay; design: key: below the threshold = too weak to quantify, mostly under pKd 3.1 to 4; settings: plain residues with an end cap or a label only (N-terminal biotin on a linker: ado-ado)
Sequence (Q8NI35 673-780): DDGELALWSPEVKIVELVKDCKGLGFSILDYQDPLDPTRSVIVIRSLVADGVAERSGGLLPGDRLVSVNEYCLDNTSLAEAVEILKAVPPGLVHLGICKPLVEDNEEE

Row | pKd | Binder
24 | below the threshold | RRLQGTSSMV [GOLT1A, Q6ZVE7]

target: FRMPD2_2, Q68DX3; assay: holdup assay; design: key: below the threshold = too weak to quantify, mostly under pKd 3.1 to 4; settings: plain residues with an end cap or a label only (N-terminal biotin on a linker: ado-ado)
Sequence (Q68DX3 944-1038): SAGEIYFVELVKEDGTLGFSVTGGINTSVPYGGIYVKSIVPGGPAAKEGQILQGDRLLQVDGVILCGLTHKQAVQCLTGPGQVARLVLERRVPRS

Row | pKd | Binder
25 | below the threshold | RRLQGTSSMV [GOLT1A, Q6ZVE7]

Reference: paper PMC9482650, “Quantitative fragmentomics allow affinity mapping of interactomes” (Nature Communications, 2022)
